From publication PMC9276948 come the findings set out here.

This assay deals with GST-MoMkk1 (Magnaporthe oryzae) (UniProt G4N6Z6). The assay can be described thus: MST.

For the substance His-MoPtc1 (enzyme), the Kd – broadly, a measure of binding affinity in units of concentration – stood at 1.05 µM.

Substance His-MoPtc2 (enzyme) had a Kd of 2.27 µM.
